# Measurements as given in patent publication US20090214528A1 (published 2009).
# B1: CNTO 860 derived from the YB2/0 host cell line C1083B (antibody, human IgG1, kappa, V domains shown)
# VH: QVQLVESGGGVVQPGRSLRLSCKASGFNIKDYYMHWVRQAPGKGLEWIGLIDPENGNTIYDPKFQGRFTISADNSKNTLFLQMDSLRPEDTAVYYCARDNSYYFDYWGQGTPVTVSS
# VL: DIQMTQSPSSLSASVGDRVTITCKASQDIRKYLNWYQQKPGKAPKLLIYYATSLADGVPSRFSGSGSGTDYTFTISSLQPEDIATYYCLQHGESPYTFGQGTKLEITR
# Target: human tissue factor (human, UniProt P13726 33-295)
# Experiment: cell-based or functional assay
binder,measurement,value
B1,"ADCC potency relative to CNTO 860 derived from C463, second experiment, 51Cr-release on HCT 116 cells",~10 fold
